Consider 44 sequences from the Immune Epitope Database (IEDB).

Some results are limits rather than exact numbers.

A word on the Kd: it is the concentration at which binding is half-saturated. A word on the IC50: it is the midpoint of a concentration-inhibition curve.

The target of one assay is HLA-A*24:02. The experiment in a line: IEDB peptide-MHC binding, purified MHC/competitive/radioactivity; filed as Kd, often an IC50 or EC50 that approximates it; ≥ and ≤ were set here for values at or beyond the usual limits of such assays.
The target in another assay is HLA-A*32:01. The assay is described as above.
The target of assay [1] is HLA-A*02:01. The experiment in a line: IEDB peptide-MHC binding, purified MHC/competitive/fluorescence; ≥ and ≤ were set here for values at or beyond the usual limits of such assays.
A further assay addresses HLA-B*15:01. Nature of the assay: IEDB peptide-MHC binding, purified MHC/competitive/radioactivity; filed as Kd, often an IC50 or EC50 that approximates it; ≥ and ≤ were set here for values at or beyond the usual limits of such assays.
In the next assay the target is HLA-B*18:01. The experiment in a line: IEDB peptide-MHC binding, purified MHC/direct/fluorescence; filed as Kd, often an IC50 or EC50 that approximates it; ≥ and ≤ were set here for values at or beyond the usual limits of such assays.
For the next assay, the target named is HLA-B*40:01. Described as above. The conditions noted are these: source organism: Mammarenavirus lassaense.
Another assay deals with HLA-A*01:01. Nature of the assay: IEDB peptide-MHC binding, purified MHC/competitive/radioactivity; filed as Kd, often an IC50 or EC50 that approximates it; ≥ and ≤ were set here for values at or beyond the usual limits of such assays.
In another assay the target is HLA-A*26:01. Described as above.
In another assay the target is HLA-A*29:02. The assay is described as above.
The target in a further assay is HLA-A*30:01. Described as above.
For a further assay, the target named is HLA-A*30:02. The assay is described as above.
Assay [2] deals with HLA-A*02:01. The experiment in a line: IEDB peptide-MHC binding, purified MHC/competitive/fluorescence; filed as Kd, often an IC50 or EC50 that approximates it; ≥ and ≤ were set here for values at or beyond the usual limits of such assays.
The next assay addresses HLA-A*03:01. Nature of the assay: IEDB peptide-MHC binding, purified MHC/direct/fluorescence; filed as Kd, often an IC50 or EC50 that approximates it; ≥ and ≤ were set here for values at or beyond the usual limits of such assays. The conditions noted are these: source organism: Vibrio vulnificus.
The next assay deals with HLA-A*31:01. Described as above.
The next assay addresses HLA-B*51:01. The experiment in a line: IEDB peptide-MHC binding, purified MHC/competitive/radioactivity; filed as Kd, often an IC50 or EC50 that approximates it; ≥ and ≤ were set here for values at or beyond the usual limits of such assays.
In another assay the target is HLA-B*27:05. Nature of the assay: IEDB peptide-MHC binding, purified MHC/direct/fluorescence; filed as Kd, often an IC50 or EC50 that approximates it; ≥ and ≤ were set here for values at or beyond the usual limits of such assays. The conditions noted are these: source organism: SARS-CoV1.
In another assay the target is HLA-A*33:01. Nature of the assay: IEDB peptide-MHC binding, purified MHC/competitive/radioactivity; filed as Kd, often an IC50 or EC50 that approximates it; ≥ and ≤ were set here for values at or beyond the usual limits of such assays. The conditions noted are these: source organism: SARS coronavirus Tor2.
A further assay concerns the target HLA-A*68:01. The assay is described as above. The settings on record: source organism: SARS coronavirus Tor2.
The target in the next assay is HLA-B*57:01. The experiment in a line: IEDB peptide-MHC binding, purified MHC/direct/fluorescence; filed as Kd, often an IC50 or EC50 that approximates it; ≥ and ≤ were set here for values at or beyond the usual limits of such assays. The settings on record: source organism: Vibrio alginolyticus 12G01.
The next assay addresses HLA-B*58:01. The description is as above. The conditions noted are these: source organism: Vibrio alginolyticus 12G01.
Where [3] appears, read: source organism: Dengue virus 4 Philippines/H241/1956.
Where [4] appears, read: source organism: Vaccinia virus WR.
Where [5] appears, read: source organism: Hepatitis C virus genotype 1.
Where [6] appears, read: source organism: Vaccinia virus.
The mark [7] stands for this setting: source organism: Zaire ebolavirus.
Where [8] appears, read: source organism: Mammarenavirus brazilense.
Where [9] appears, read: source organism: Dengue virus 1 Brazil/97-11/1997.
Where [10] appears, read: source organism: Dengue virus 3 Martinique/1243/1999.
[11] abbreviates: source organism: Mammarenavirus choriomeningitidis.

In the case of RFSTSLLFL, in the assay with HLA-A*24:02 (setting [3]), the Kd was 77.1 nM.

For the sequence HINALEYII, the Kd with HLA-A*32:01 (setting [4]) came out at 631 nM.

For the sequence PLGVVTNST, the half-maximal inhibitory concentration (IC50) in the assay with HLA-A*02:01 [1] (source organism: Sudan ebolavirus) is at least 114 µM.

In the case of GMYCRCSHG, the Kd with HLA-B*15:01 (setting [4]) was 216 nM.

In the assay with HLA-A*02:01 [1] (source organism: Human alphaherpesvirus 1 strain 17), LMHAPAFET showed an IC50 of 2 µM.

For the sequence MLVCGDDLV, the IC50 with HLA-A*02:01 [1] (setting [5]) is 5 µM. This counts as single-digit micromolar.

Turning to NETGLELTL, the Kd came out at 16.7 nM with HLA-B*18:01 (source organism: Mammarenavirus lassaense) and 19 nM in the assay with HLA-B*40:01.

Turning to QLLLQKYPP, the half-maximal inhibitory concentration (IC50) with HLA-A*02:01 [1] (setting [6]) is at least 93.6 µM.

In the assay with HLA-A*02:01 [1] (setting [7]), RGTTFAEGV displayed an IC50 of 9.3 µM.

In the case of GQTGIQRTVF, the Kd with HLA-B*15:01 (setting [3]) is 5.95 nM.

In the assay with HLA-A*02:01 [1] (setting [7]), AKLTEAITA displayed an IC50 of 28.6 µM. This counts as double-digit micromolar.

For the sequence KTFFWFNEV, the dissociation constant (Kd) in the assay with HLA-A*01:01 (setting [8]) was 11.5 µM; with HLA-A*26:01 (setting [8]), 12.5 µM; with HLA-A*29:02 (setting [8]), 18.6 µM; with HLA-A*30:01 (setting [8]) it was 93.2 nM; with HLA-A*30:02 (setting [8]), 59.2 nM; in the assay with HLA-A*32:01 (setting [8]) it was 7.26 nM.

Take PQLSAIALG: the IC50 with HLA-A*02:01 [1] (setting [7]) is at least 423 µM.

For GLCTLVAM, the Kd with HLA-A*02:01 [2] (source organism: Human herpesvirus 4 strain B95-8) was found to be 2370 nM.

For FTPEAKNSTF, the figures for the Kd with HLA-A*24:02 (setting [3]) and with HLA-A*26:01 (setting [3]) were 3020 nM and 0.653 µM, respectively.

As for KSWGKAKII, the Kd in the assay with HLA-A*32:01 (setting [9]) came to 47.4 nM.

For YSDPLALRE, in the assay with HLA-A*01:01 (setting [9]), the equilibrium dissociation constant (Kd) stood at 0.262 µM.

Sequence KIKDVSYND had an IC50 with HLA-A*02:01 [1] (setting [6]) of at least 571 µM.

TSLTQKVVIF: in the assay with HLA-A*01:01 (setting [10]), the Kd was found to be 8.96 µM.

In the case of LYAVATTIL, in the assay with HLA-A*24:02 (setting [3]), the Kd was found to be 79.5 nM.

Consider KQSNTNKHM, for which, in the assay with HLA-B*15:01 (setting [4]), the Kd was found to be 27.8 nM.

With RIYSDPLAL, the equilibrium dissociation constant (Kd) with HLA-A*32:01 (source organism: Dengue virus 2 Jamaica/1409/1983) is 14100 nM.

QEKWMTGRM: the Kd with HLA-B*18:01 (source organism: Yellow fever virus) was determined as 3050 nM.

VSETQHGTIL: the Kd with HLA-A*01:01 (setting [10]) is at least 70.4 µM.

HLMFYTLPI: the Kd with HLA-A*32:01 (setting [4]) worked out at 0.177 nM.

Consider MQYMTIQQK, for which the results for the Kd with HLA-A*03:01 and in the assay with HLA-A*31:01 (source organism: Vibrio vulnificus) were 203 nM and 346 nM, respectively.

As to RTYGLRNSL, in the assay with HLA-A*32:01 (setting [4]), the Kd came out at 0.626 nM.

For EDMLSVWNRV, the Kd with HLA-A*32:01 (setting [9]) was at least 34400 nM.

Turning to KTETTILDV, in the assay with HLA-A*01:01 (setting [3]), the Kd is 6.2 µM.

MTMNIVNFF: the Kd in the assay with HLA-A*32:01 (setting [4]) came out at 1.93 nM.

As to APCKVPIEI, in the assay with HLA-B*51:01 (setting [3]), the Kd is at least 77400 nM.

With IMAKNEVFCV, in the assay with HLA-A*02:01 [1] (setting [5]), the IC50 stood at 5 µM.

TLFIGSHVV showed a Kd in the assay with HLA-A*02:01 [2] (source organism: human gammaherpesvirus 4) of 1.4 nM.

IALFLAHAI: the Kd in the assay with HLA-B*51:01 (setting [9]) turned out to be 135 nM.

Consider KTGESSRSY, for which the Kd in the assay with HLA-A*01:01 (setting [11]) is 3.66 µM; with HLA-A*26:01 (setting [11]), at least 77.9 µM; with HLA-A*29:02 (setting [11]), 16.7 µM; in the assay with HLA-A*30:01 (setting [11]) it was 1090 nM; with HLA-A*30:02 (setting [11]), 63.3 nM; with HLA-A*32:01 (setting [11]), 14300 nM.

Take DPFPQSNSPI: the Kd with HLA-B*51:01 (setting [3]) turned out to be 733 nM.

On to VFFTFVLLL, for which, in the assay with HLA-A*24:02 (setting [10]), the Kd was determined as 258 nM.

With ATFSVPMEK, the Kd worked out at 141 nM in the assay with HLA-A*31:01 (source organism: SARS-CoV1), 19 µM with HLA-B*27:05, 14.5 µM in the assay with HLA-A*33:01 and 0.161 nM in the assay with HLA-A*68:01.

Take LMDMITLSL: in the assay with HLA-A*32:01 (setting [4]), the Kd was 29.7 nM.

As for FNYCEGTTVV, the Kd with HLA-B*51:01 (setting [10]) is 1220 nM.

As for ILTLANWCL, in the assay with HLA-A*02:01 [2] (source organism: Escherichia coli O139:H28 str. E24377A), the Kd was determined as 0.2 nM.

For RTNNAELDF, in the assay with HLA-A*32:01 (setting [4]), the Kd came out at 131 nM.

Take LTFNFTPKI: the Kd in the assay with HLA-A*32:01 (setting [4]) amounted to 110 nM.

Take VSEPELCLL: the Kd with HLA-B*57:01 and in the assay with HLA-B*58:01 was at least 20 µM each time.
